In patent US20200369729A1 (CENTRE NATIONAL DE LA RECHERCHE SCIENTIFIQUE, published 2020):
*: point of attachment. Succinimide(1-Et,3-yl) = CCN1C(=O)CC(*)C1=O

B1: MUB40#3 (peptide)
peptide: Ac-C(Succinimide(1-Et,3-yl))DQMLRQDDLDGYTDETIPYSTAEGIKKFEGDGYELFKDNF-NH2
modifications: not fully specified
notes: Unlabelled peptide as used in analytical gel filtration; 'rather organized as tetramers'
B2: MUB40#2 (peptide)
peptide: Ac-C(Succinimide(1-Et,3-yl))GYTDETIPYSTAEGIKKFEGDGYELFKDNFPAGEKFDNDD-NH2
modifications: not fully specified
notes: as for B1
B3: MUB40#1 (peptide)
peptide: Ac-C(Succinimide(1-Et,3-yl))TAEGIKKFEGDGYELFKDNFPAGEKFDNDDTNDQFYTVIF-NH2
modifications: not fully specified
notes: Unlabelled peptide as used in analytical gel filtration; trimer
B4: MUB40#4 (peptide)
peptide: Ac-C(Succinimide(1-Et,3-yl))VHVQYIDGETDQMLRQDDLDGYTDETIPYSTAEGIKKFEG-NH2
modifications: not fully specified
notes: as for B1

Molecular target: the molecule itself
Experiment: self-association, analytical gel filtration in 20 mM phosphate buffer, 150 mM NaCl, pH 7.4
Description: (A) Schematic representation of the four 40-amino acid peptides named MUB₄₀#1, MUB₄₀#2, MUB₄₀#3, MUB₄₀#4, overlapping and covering the MUB₇₀ sequence (Coïc et al., 2012) (from C-terminal to N-terminal, see FIG. 2). (B) Human colonic mucus layer was labelled with the MUB₄₀#1-Cy5 fluorescent conjugate (1 μg/mL, magenta). (C) Colonic goblet cell granules were labelled with MUB₄₀#1-Cy5 (1 μg/mL, magenta), which was not the case for MUB₇₀-Cy5 (Coïc et al., 2012) or MUB₄₀#2-#4 peptides (data not shown). Actin (red); bar, 20 μm. (D) Elution profiles of MUB₄₀ peptides (#1-#4) were obtained by analytical gel filtration (absorbance at 280 nm). Samples were prepared at 10 μg/ml in the elution buffer (20 mM phosphate buffer, 150 mM NaCl, pH7.4). MUB₄₀#1 assembled as a trimer, similarly to MUB₇₀ (Coïc et al., 2012), not MUB₄₀#2, MUB₄₀#3, and MUB₄₀#4. […] (E) Far-UV Circular Dichroism spectra of the four MUB₄₀ peptides at 60 μM in 20 mM sodium phosphate buffer (pH 7.4) in the presence of 50 mM NaCl, showing a specific structural signal of MUB₄₀#1, compared to others peptides. (F) A human colonic explant was infected with Shigella flexneri pGFP (green) and labelled with MUB₄₀#1-Cy5 (1 μg/mL, magenta) and Dapi (blue) after fixation and permeabilization. The colonic mucus layer and infiltrated neutrophils (see (G)), were labelled with MUB₄₀#1-Cy5, as imaged by two-photon microscopy. Bar, 50 μm (G) The labelling of polymorphonuclear neutrophils with MUB₄₀#1-Cy5 (1 μg/mL, magenta) was confirmed on human purified neutrophils, showing a granular staining. Nucleus was stained with Dapi (blue). Bar, 5 μm.

Protein | binding result
B1 | binds
B2 | binds
B3 | binds
B4 | binds
